Experiment in all cases: SPR
For one data set, the target named is T1, GkDnaC K50A (Geobacillus kaustophilus HTA426, UniProt Q5KU75 1-454, K50A).
T1 sequence: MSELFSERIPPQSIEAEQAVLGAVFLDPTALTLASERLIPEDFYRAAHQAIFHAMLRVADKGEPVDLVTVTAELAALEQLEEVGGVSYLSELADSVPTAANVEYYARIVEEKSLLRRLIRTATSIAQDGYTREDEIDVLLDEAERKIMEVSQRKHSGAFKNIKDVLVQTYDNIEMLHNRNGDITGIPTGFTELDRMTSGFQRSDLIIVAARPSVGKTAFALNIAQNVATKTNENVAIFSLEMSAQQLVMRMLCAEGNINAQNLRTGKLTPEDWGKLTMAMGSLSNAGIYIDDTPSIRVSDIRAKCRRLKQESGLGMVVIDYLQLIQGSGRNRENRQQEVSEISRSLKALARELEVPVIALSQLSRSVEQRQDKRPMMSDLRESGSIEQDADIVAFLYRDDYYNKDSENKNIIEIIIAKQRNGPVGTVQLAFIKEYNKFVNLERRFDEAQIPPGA

The target in a further data set is T2, GkDnaC R330A (Geobacillus kaustophilus HTA426, UniProt Q5KU75 1-454, R330A).
T2 sequence: T1 sequence with A50K, R330A

In a further data set the target is T3, GkDnaC R145A (Geobacillus kaustophilus HTA426, UniProt Q5KU75 1-454, R145A).
T3 sequence: T1 sequence with A50K, R145A

The target of data set [1] is T4, GkDnaC R145K146A double mutant (Geobacillus kaustophilus HTA426, UniProt Q5KU75 1-454, R145A;K146A).
T4 sequence: T1 sequence with A50K, R145A, K146A

One molecule from PMC2647316 (Nucleic Acids Research, 2008) can be followed below.

Residue numbers refer to the chain shown, from its start.

B1: 5'Bio-(dT)30 (ssDNA)
DNA: TTTTTTTTTTTTTTTTTTTTTTTTTTTTTT
Usually Kd stands for a measure of binding affinity in units of concentration. For the molecule B1, the Kd with GkDnaC K50A came to 1.41 µM; with GkDnaC R330A, 17.8 µM; with GkDnaC R145A it was 1.39 µM; in data set [1], 27 µM.
